Assay results taken from patent US8309523 (VIB VZW, dated 2012).
Positions count from the first letter of the chain named. Numbers in names are those of the source. Read-outs that look alike come from different tables or passages of the source.

B1: MALT1 (wild type, Flag- and Avi-tagged bio-construct) (protein)
chain: MSLLGDPLQALPPSAAPTGPLLAPPAGATLNRLREPLLRRLSELLDQAPEGRGWRRLAELAGSRGRLRLSCLDLEQCSLKVLEPEGSPSLCLLKLMGEKGCTVTELSDFLQAMEHTEVLQLLSPPGIKITVNPESKAVLAGQFVKLCCRATGHPFVQYQWFKMNKEIPNGNTSELIFNAVHVKDAGFYVCRVNNNFTFEFSQWSQLDVCDIPESFQRSVDGVSESKLQICVEPTSQKLMPGSTLVLQCVAVGSPIPHYQWFKNELPLTHETKKLYMVPYVDLEHQGTYWCHVYNDRDSQDSKKVEIIIGRTDEAVECTEDELNNLGHPDNKEQTTDQPLAKDKVALLIGNMNYREHPKLKAPLVDVYELTNLLRQLDFKVVSLLDLTEYEMRNAVDEFLLLLDKGVYGLLYYAGHGYENFGNSFMVPVDAPNPYRSENCLCVQNILKLMQEKETGLNVFLLDMCRKRNDYDDTIPILDALKVTANIVFGYATCQGAEAFEIQHSGLANGIFMKFLKDRLLEDKKITVLLDEVAEDMGKCHLTKGKQALEIRSSLSEKRALTDPIQGTEYSAESLVRNLQWAKAHELPESMCLKFDCGVQIQLGFAAEFSNVMIIYTSIVYKPPEIIMCDAYVTDFPLDLDIDPKDANKGTPEETGSYLVSKDLPKHCLYTRLSSLQKLKEHLVFTVCLSYQYSGLEDTVEDKQEVNVGKPLIAKLDMHRGLGRKTCFQTCLMSNGPYQSSAATSGGAGHYHSLQDPFHGVYHSHPGNPSNVTPADSCHCSRTPDAFISSFAHHASCHFSRSNVPVETTDEIPFSFSDRLRISEK
B2: MALT1-R149A (bio-tagged) (protein)
chain: B1 chain with R149A
B3: MALT1-C464A (bio-tagged) (protein)
chain: B1 chain with C464A
B4: MALT1 as used in the paracaspase assay of Example 10 (protein)
chain: B1 chain
B5: MALT1C-gyraseB-C464A (enzyme, part only; not given: gyrase B fragment)
chain, part: TTDQPLAKDKVALLIGNMNYREHPKLKAPLVDVYELTNLLRQLDFKVVSLLDLTEYEMRNAVDEFLLLLDKGVYGLLYYAGHGYENFGNSFMVPVDAPNPYRSENCLCVQNILKLMQEKETGLNVFLLDMARKRNDYDDTIPILDALKVTANIVFGYATCQGAEAFEIQHSGLANGIFMKFLKDRLLEDKKITVLLDEVAEDMGKCHLTKGKQALEIRSSLSEKRALTDPIQGTEYSAESLVRNLQWAKAHELPESMCLKFDCGVQIQLGFAAEFSNVMIIYTSIVYKPPEIIMCDAYVTDFPLDLDIDPKDANKGTPEETGSYLVSKDLPKHCLYTRLSSLQKLKEHLVFTVCLSYQYSGLEDTVEDKQEVNVGKPLIAKLDMHRGLGRKTCFQTCLMSNGPYQSSAATSGGAGHYHSLQDPFHGVYHSHPGNPSNVTPADSCHCSRTPDAFISSFAHHASCHFSRSNVPVETTDEIPFSFSDRLRISEK

What was measured:
[1] = molecular target: T1, [35S]methionine-labeled human A20 (in vitro translated) (UniProt P21580)
T1 sequence: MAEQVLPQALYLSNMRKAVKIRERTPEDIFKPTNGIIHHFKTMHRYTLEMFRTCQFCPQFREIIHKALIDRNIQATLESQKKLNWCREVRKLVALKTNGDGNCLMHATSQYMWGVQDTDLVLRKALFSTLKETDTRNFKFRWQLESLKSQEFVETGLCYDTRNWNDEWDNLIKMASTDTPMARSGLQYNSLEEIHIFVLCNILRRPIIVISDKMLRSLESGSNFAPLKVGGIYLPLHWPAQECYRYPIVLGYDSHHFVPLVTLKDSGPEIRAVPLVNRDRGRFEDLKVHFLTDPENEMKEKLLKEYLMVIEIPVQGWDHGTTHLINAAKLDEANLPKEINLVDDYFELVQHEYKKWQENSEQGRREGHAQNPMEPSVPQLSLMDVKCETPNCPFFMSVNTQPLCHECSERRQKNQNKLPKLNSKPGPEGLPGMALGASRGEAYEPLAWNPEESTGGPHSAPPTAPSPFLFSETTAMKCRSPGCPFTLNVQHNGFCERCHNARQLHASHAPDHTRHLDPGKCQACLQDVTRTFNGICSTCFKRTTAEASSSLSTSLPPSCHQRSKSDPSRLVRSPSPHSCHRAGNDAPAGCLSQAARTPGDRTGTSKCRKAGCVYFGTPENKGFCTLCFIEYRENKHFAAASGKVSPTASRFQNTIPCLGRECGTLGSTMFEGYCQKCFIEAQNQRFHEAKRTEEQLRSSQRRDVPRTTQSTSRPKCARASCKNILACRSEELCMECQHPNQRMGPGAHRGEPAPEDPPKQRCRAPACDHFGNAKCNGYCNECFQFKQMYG

Z-GASR-CHO = tested on: T2, Z-GASR-CHO
T2 sequence: GASR

Ac-LSSR-AMC [2] = tested on: T3, Ac-LSSR-AMC
T3 sequence: LSSR

Z-LSSR-CHO [3] = tested on: T4, Z-LSSR-CHO
T4 sequence: LSSR

Z-LSSR-CHO [4] = molecular target: T5, Z-LSSR-CHO
T5 chain: LSSR

Ac-LSSR-AMC [5] = molecular target: T6, Ac-LSSR-AMC
T6 chain: LSSR

[6] = molecular target: T7, Arabidopsis thaliana serpin, IKLA-mutant, Q9S7T8
T7 chain: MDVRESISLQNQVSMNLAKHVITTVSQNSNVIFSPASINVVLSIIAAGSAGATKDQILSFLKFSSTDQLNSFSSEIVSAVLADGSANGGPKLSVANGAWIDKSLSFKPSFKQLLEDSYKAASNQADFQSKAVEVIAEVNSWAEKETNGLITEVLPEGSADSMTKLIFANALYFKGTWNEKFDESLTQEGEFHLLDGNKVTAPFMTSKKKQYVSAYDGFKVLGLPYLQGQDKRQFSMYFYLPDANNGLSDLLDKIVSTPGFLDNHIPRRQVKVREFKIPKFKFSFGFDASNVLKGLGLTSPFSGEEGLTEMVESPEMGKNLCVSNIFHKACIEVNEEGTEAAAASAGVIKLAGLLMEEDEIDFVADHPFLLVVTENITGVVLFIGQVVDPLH

[7] = molecular target: T8, Arabidopsis thaliana serpin (AT1g47710), Q9S7T8
T8 chain: T7 chain with A351R

Row | Molecule | in vitro cleavage of radiolabeled A20 (SDS-PAGE, autoradiography; 500, 1000 or 1500 nM enzyme) [1] | cleavage of Ac-LSSR-AMC in vitro (fluorescence release) (Ac-LSSR-AMC [2]) | cleavage of Ac-LSSR-AMC in vitro (fluorescence release) (Ac-LSSR-AMC [5]) | further results
1 | MALT1C-gyraseB | In vitro incubation of radiolabeled A20 with recombinant MALT1C-gyraseB resulted in the generation of an A20 fragment of approximately 50 kDa | the recombinant MALT1 p20 fragment (Sun et al., 2004) efficiently cleaved the Ac-LSSR-AMC (see SEQ ID NO:1) substrate |  | Ac-LSSR-AMC cleavage by recombinant MALT1 (Z-GASR-CHO): adding Z-LSSR-CHO (see SEQ ID NO:1) or Z-GASR-CHO (see SEQ ID NO:2) completely blocked the proteolytic activity of recombinant MALT1; Ac-LSSR-AMC cleavage by recombinant MALT1 (Z-LSSR-CHO [3]): adding Z-LSSR-CHO (see SEQ ID NO:1) or Z-GASR-CHO (see SEQ ID NO:2) completely blocked the proteolytic activity of recombinant MALT1
2 | B1 |  |  | bio-IP purified MALT1 was indeed able to cleave Ac-LSSR-AMC (see SEQ ID NO:1) in vitro | Ac-LSSR-AMC cleavage by bio-IP purified MALT1 (fluorescence release) (Z-LSSR-CHO [4]): Substrate cleavage by MALT1 was efficiently blocked by a Z-LSSR-CHO (see SEQ ID NO:1) and a Z-GASR-CHO (see SEQ ID NO:2) inhibitor at equimolar concentrations
3 | B2 |  |  | the R149A mutant was as efficient in substrate processing as MALT1 | 
4 | B3 |  |  | whereas bio-1P purified C464 mutant was not | 
5 | B4 |  |  |  | paracaspase assay (MALT1 proteolytic activity) [6]: the IKLA-mutant (SEQ ID NO:16), which is inactive versus plant metacaspase (Vercammen et al., 2006) is performing better than wild type serpin at higher concentrations; paracaspase assay (MALT1 proteolytic activity) [7]: Inhibition of the MALT1 paracaspase activity is possible, but only at relatively high concentrations of serpin
6 | B5 | incubation of A20 with the catalytically inactive MALT1C-gyraseB-C464A mutant protein did not result in A20 cleavage | the recombinant C464A mutant failed to do so, although its higher concentration |  | 
